The labels stand for the following.
B1: WT: wild-type glycosyltransferase BS-YjiC from Bacillus subtilis 168, amino acid sequence SEQ ID NO: 1 (protein)
chain: MKKYHISMINIPAYGHVNPTLALVEKLCEKGHRVTYATTEEFAPAVQQAGGEALIYHTSLNIDPKQIREMMEKNDAPLSLLKESLSILPQLEELYKDDQPDLIIYDFVALAGKLFAEKLNVPVIKLCSSYAQNESFQLGNEDMLKKIREAEAEFKAYLEQEKLPAVSFEQLAVPEALNIVFMPKSFQIQHETFDDRFCFVGPSLGERKEKESLLIDKDDRPLMLISLGTAFNAWPEFYKMCIKAFRDSSWQVIMSVGKTIDPESLEDIPANFTIRQSVPQLEVLEKADLFISHGGMNSTMEAMNAGVPLVVIPQMYEQELTANRVDELGLGVYLPKEEVTVSSLQEAVQAVSSDQELLSRVKNMQKDVKEAGGAERAAAEIEAFMKKSAVPQ
B2: K125I/N178I: BS-YjiC (SEQ ID NO: 1) double mutant: lysine into isoleucine (K125I) and asparagine 178 into isoleucine (protein)
chain: B1 chain with K125I, N178I
B3: P313W: BS-YjiC (SEQ ID NO: 1) mutant with proline at the 313th position mutated into tryptophan (protein)
chain: B1 chain with P313W
B4: K125I/P313W: BS-YjiC (SEQ ID NO: 1) double mutant: lysine into isoleucine (K125I) and proline 313 into tryptophan (protein)
chain: B1 chain with K125I, P313W
B5: N178I: BS-YjiC (SEQ ID NO: 1) mutant with asparagine at the 178th position mutated into isoleucine (protein)
chain: B1 chain with N178I
B6: K125I: BS-YjiC (SEQ ID NO: 1) mutant with lysine mutated into isoleucine (K125I) (protein)
chain: B1 chain with K125I

Changes are numbered by the printed parent chain. In names and notes the source's numbering stands. Several values for one entry are separate records, joined by “and”; a condition that tells them apart may be missing. Identical values can stand only once.

The nature of the first data set: Initial enzyme activity of pure enzyme solutions. It counts as biochemical. The settings on record: 35° C., pH 8.0, 1 mM PPD, 5 mM UDPG. On the procedure:
(§1) The detection methods involved in the following embodiments are as follows. • 1. Determination method of enzyme activity of glycosyltransferase BS-YjiC: 50 microliters (μL) of pure enzyme with a concentration of 1.5 milligrams per milliliter (mg/mL) is added to 950 μL of a reaction system containing 50 millimoles per liter (mM) Tris hydrochloride (Tris-HCl) (pH 8.0) buffer of 1 mM protopanaxadiol (PPD), 5 mM uridine diphosphate glucose (UDPG) and 8 mM magnesium chloride (MgCl2); reacted in a water bath at 35° C. for 30 minutes (min), then added the same volume of methanol to terminate the enzymatic reaction, so as to obtain a reacted product. The reacted product is centrifuged, then the supernatant is taken and filtered with a 0.22 micrometers (μm) filter to obtain a reaction solution, and the residual amount of PPD in the reaction solution is detected by high-performance liquid chromatography (HPLC). • 2. Definition of enzyme activity: the amount of enzyme required to convert 1 micromole (μmol) of ginsenoside PPD per minute at 35° C. and pH 8.0 is defined as one unit of enzyme activity U.
The pure enzyme solutions containing the wild-type glycosyltransferase BS-YjiC, K125I, N178I, P313W, K125I/N178I, and K125I/P313W prepared above are detected respectively, and the results are shown in Table 2.
Take B1: the “Initial enzyme activity (%)” value is given as 100%.
Same read-out and setting: with B2 the figure was 106.47%; with B3, 96.53%; with B4, 105.13%.
On the same count and under the same terms, to B5 belongs 98.76%; to B6, 103.15%.

The next data set is described as follows: Melting temperature Tm of the enzyme. The data set is classed as physicochemical.
Settings: not given
Regarding B1, the “melting temperature Tm” value was 47.30 °C.
Turning to B2, the “increase of melting temperature Tm over natural glycosyltransferase BS-YjiC” value was found to be 7.21 °C and the “melting temperature Tm” value was determined as 54.51 °C.
For the molecule B4, the “increase of melting temperature Tm over natural glycosyltransferase BS-YjiC” value amounted to 5.77 °C and the “melting temperature Tm” value came out at 53.07 °C.

A short description of a further data set: Kinetic parameters with PPD as substrate (HPLC). It counts as biochemical. The note with it: 50-1000 μM PPD, 10 mM UDPG, 8 mM MgCl2, pH 8.0, 35° C., 30 min. As for the experimental part: 0.22 μg of pure enzyme is added into 50 mM […] (pH 8.0) buffer containing 10 mM UDPG and 8 mM MgCl2, added 50, 100, 200, 300, 400, 500, 600, 800 and 1000 μM PPD respectively, reacted at 35° C. in water bath for 30 min, and then then an equal volume of methanol is added to terminate the enzymatic reaction. The reacted products are centrifuged, then the supernatants are taken and filtered by a 0.22 μm filter to obtain reaction solutions, and the remaining amount of PPD in the reaction solutions is detected by HPLC.
For the molecule B1, the Kcat worked out at 0.96 ± 0.06 s⁻¹, the Km was 132 ± 32.1 µM and the Vmax came out at 8.32 ± 0.36 U g^−1.
As to B2, the Kcat was found to be 1.01 ± 0.05 s⁻¹, the Km is 117 ± 22.5 µM and the Vmax is listed as 8.82 ± 0.45 U g^−1.
In the case of B3, the Kcat is 1.11 ± 0.08 s⁻¹, the Michaelis-Menten constant (Km) is 136 ± 32 µM and the Vmax worked out at 8.94 ± 0.60 U g^−1.
With B4, the Kcat stood at 0.98 ± 0.05 s⁻¹, the Km amounted to 121 ± 23.1 µM and the Vmax was 8.56 ± 0.44 U g^−1.
The like results for B5 were, in that order, 1.01 ± 0.07 s⁻¹, 132 ± 33.8 µM and 8.75 ± 0.62 U g^−1.
Regarding B6, the Kcat stood at 0.99 ± 0.05 s⁻¹, the Km stood at 128 ± 22.4 µM and the Vmax stood at 8.60 ± 0.41 U g^−1.

A further data set can be described thus: Thermal stability: residual enzyme activity after incubation at 45° C. The data set is classed as biochemical. The note with it: pure enzyme incubated in water bath at 45° C. for 90 min; enzyme without high-temperature treatment as blank control. On the procedure: as §1
After the prepared pure enzymes are incubated in a water bath at 45° C. for 90 min, 1 mL is taken, and the residual enzyme activity of the remaining enzymes is determined according to the enzyme activity determination method of the glycosyltransferase BS-YjiC, and the percentage of residual enzyme activity is obtained by taking the enzyme activity of the pure enzyme solution without high-temperature treatment as a blank control.
The pure enzyme solutions containing wild-type glycosyltransferase BS-YjiC, K125I, N178I, P313W, K125I/N178I and K125I/P313W prepared in the step 2 of the embodiment 6 are taken, respectively, then put in a constant temperature water bath at 45° C., and sampled every 30 min. The residual enzyme activity of glycosyltransferase BS-YjiC is measured according to the enzyme activity determination method, and its thermal stability is compared.
For B1, the “Residual enzyme activity (%)” value worked out at 84.6%.
The same measure, in the same setting: with B2 the figure was 98.3% and 98.25%; with B3, 89.48%; with B4, 95.1% and 95.43%.
With B5, the “Residual enzyme activity (%)” value was 87.42%.
The same measure, in the same setting: with B6 the figure was 91.05%.

As a reminder, the Km is the substrate concentration at which the rate is half of its maximum.

These data come from patent publication US12134789B2, “Construction method and applications of glycosyltransferase BS-YjiC mutant” (Northwest university, priority 2023, dated 2024).
